# In US20200199241A1 (Chugai, published 2020):
# Substitutions are numbered along the chain they refer to. Names may count otherwise.
# T1: human FcγRIIa(H) (human, UniProt P12318 36-217)
# T1 construct: also called FcgRIIaH; FcγRIIa type H
# T1 sequence: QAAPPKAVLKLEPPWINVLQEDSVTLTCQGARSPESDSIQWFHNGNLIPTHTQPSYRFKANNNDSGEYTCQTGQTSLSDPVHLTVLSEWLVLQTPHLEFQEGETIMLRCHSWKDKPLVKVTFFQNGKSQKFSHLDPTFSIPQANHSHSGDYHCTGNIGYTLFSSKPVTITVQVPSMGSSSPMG
# T2: human FcγRIIa(R) (human, UniProt P12318 36-217)
# T2 construct: also called FcgRIIaR; FcγRIIa type R
# T2 chain: T1 sequence with H133R
# T3: human FcγRIIb (human, UniProt P31994 43-217, limits assumed)
# T3 construct: also called FcgRIIb
# T3 sequence: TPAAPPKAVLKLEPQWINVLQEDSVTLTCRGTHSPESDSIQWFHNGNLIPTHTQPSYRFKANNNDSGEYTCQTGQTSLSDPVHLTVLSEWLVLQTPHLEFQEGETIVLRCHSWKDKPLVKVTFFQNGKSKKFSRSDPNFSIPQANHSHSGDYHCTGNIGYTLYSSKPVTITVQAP
# B1: GpH7-B3 variant G236P/GpL16-k0 (antibody, human IgG1)
# heavy: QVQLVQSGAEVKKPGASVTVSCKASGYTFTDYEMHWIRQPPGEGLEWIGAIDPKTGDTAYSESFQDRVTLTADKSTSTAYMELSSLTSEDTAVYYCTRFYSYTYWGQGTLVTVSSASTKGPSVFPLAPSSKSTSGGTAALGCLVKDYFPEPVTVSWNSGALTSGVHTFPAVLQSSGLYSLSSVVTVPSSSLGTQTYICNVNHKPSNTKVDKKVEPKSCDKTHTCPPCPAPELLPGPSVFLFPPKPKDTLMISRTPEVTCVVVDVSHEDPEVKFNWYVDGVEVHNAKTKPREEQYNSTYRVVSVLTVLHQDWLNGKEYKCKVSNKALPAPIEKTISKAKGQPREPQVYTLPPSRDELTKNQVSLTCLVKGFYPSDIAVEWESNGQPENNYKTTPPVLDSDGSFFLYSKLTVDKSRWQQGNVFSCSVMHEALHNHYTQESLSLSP
# light: DIVMTQSPLSLPVTPGEPASISCQASESLVHSNRNTYLHWYLQKPGQSPQLLIYKVSNRFSGVPDRFSGSGSGTDFTLKISRVEAEDVGVYYCSQNTHVPPTFGQGTKVEIE
# notes: copies: 2 + 2
# B2: GpH7-B3 variant L234D/GpL16-k0 (antibody, human IgG1)
# heavy: not shown
# light: B1 light
# notes: copies: 2 + 2
# B3: GpH7-B3 variant G237T/GpL16-k0 (antibody, human IgG1)
# heavy: not shown
# light: B1 light
# notes: copies: 2 + 2
# B4: GpH7-B3 variant G236Q/GpL16-k0 (antibody, human IgG1)
# heavy: not shown
# light: B1 light
# notes: copies: 2 + 2
# B5: GpH7-B3 variant G236Y/GpL16-k0 (antibody, human IgG1)
# heavy: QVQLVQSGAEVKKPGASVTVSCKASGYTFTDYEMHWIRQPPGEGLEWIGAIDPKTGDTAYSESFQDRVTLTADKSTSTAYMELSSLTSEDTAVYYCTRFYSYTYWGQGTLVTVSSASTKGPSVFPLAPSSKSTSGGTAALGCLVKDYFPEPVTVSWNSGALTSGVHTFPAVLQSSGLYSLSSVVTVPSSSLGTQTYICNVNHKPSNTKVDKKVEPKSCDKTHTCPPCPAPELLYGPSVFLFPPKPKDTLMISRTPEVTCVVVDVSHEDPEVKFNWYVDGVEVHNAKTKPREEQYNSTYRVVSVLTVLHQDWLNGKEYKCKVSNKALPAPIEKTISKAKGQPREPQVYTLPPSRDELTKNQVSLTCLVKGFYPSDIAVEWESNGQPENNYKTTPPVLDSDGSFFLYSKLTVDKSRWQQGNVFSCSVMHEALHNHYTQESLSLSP
# light: B1 light
# notes: copies: 2 + 2
# B6: GpH7-B3 variant G237M/GpL16-k0 (antibody, human IgG1)
# heavy: not shown
# light: B1 light
# notes: copies: 2 + 2
# B7: GpH7-B3 variant G237I/GpL16-k0 (antibody, human IgG1)
# heavy: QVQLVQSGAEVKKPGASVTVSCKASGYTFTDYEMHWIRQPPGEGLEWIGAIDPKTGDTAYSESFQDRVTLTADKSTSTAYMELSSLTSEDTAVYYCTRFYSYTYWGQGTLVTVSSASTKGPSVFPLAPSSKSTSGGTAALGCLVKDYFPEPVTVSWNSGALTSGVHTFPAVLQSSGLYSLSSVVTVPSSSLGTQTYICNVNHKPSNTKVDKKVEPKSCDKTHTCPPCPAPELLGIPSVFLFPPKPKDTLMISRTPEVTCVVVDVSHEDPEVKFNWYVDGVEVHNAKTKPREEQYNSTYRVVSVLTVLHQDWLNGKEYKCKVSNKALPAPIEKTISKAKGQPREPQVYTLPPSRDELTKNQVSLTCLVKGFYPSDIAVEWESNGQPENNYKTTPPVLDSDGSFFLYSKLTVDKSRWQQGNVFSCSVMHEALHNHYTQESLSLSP
# light: B1 light
# notes: copies: 2 + 2
# B8: GpH7-B3 variant G237Q/GpL16-k0 (antibody, human IgG1)
# heavy: not shown
# light: B1 light
# notes: copies: 2 + 2
# B9: GpH7-B3 variant L234M/GpL16-k0 (antibody, human IgG1)
# heavy: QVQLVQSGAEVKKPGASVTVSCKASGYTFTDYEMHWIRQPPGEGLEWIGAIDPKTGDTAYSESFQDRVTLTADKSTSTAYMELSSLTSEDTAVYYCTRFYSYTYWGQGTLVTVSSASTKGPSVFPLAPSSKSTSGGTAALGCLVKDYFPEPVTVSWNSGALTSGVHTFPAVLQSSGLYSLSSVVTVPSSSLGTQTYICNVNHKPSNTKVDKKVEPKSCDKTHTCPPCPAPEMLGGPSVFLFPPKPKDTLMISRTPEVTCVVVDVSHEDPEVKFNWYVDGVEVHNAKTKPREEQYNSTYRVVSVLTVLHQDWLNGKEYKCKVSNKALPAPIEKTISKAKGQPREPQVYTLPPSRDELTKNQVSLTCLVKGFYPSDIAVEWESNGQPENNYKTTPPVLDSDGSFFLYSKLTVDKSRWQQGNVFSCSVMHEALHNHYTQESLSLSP
# light: B1 light
# notes: copies: 2 + 2
# B10: GpH7-B3 variant G237E/GpL16-k0 (antibody, human IgG1)
# heavy: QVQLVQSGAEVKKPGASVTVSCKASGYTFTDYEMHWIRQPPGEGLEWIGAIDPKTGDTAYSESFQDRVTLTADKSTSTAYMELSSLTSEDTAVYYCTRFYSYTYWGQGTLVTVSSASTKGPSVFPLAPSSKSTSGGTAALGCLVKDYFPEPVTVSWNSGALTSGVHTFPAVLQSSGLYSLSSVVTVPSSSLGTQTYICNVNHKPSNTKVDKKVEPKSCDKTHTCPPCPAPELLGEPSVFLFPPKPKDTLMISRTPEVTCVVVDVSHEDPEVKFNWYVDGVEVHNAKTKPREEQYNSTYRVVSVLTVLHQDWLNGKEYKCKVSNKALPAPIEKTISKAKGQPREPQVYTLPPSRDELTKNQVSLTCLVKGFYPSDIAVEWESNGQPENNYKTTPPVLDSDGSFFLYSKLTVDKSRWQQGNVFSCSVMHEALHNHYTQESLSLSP
# light: B1 light
# notes: copies: 2 + 2
# B11: GpH7-B3 variant G237N/GpL16-k0 (antibody, human IgG1)
# heavy: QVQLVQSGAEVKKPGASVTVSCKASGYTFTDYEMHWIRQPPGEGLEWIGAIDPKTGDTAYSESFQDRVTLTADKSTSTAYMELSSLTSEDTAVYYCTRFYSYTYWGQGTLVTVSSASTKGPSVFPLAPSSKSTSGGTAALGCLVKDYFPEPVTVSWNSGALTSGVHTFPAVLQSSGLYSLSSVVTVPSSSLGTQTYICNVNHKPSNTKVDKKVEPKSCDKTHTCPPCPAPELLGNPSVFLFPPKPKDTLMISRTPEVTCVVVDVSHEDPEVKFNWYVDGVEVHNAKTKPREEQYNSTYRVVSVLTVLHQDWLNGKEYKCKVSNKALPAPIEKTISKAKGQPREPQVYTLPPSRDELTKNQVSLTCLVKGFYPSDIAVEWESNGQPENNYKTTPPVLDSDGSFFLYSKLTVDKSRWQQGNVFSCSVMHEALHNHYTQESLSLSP
# light: B1 light
# notes: copies: 2 + 2
# B12: GpH7-B3 variant G237L/GpL16-k0 (antibody, human IgG1)
# heavy: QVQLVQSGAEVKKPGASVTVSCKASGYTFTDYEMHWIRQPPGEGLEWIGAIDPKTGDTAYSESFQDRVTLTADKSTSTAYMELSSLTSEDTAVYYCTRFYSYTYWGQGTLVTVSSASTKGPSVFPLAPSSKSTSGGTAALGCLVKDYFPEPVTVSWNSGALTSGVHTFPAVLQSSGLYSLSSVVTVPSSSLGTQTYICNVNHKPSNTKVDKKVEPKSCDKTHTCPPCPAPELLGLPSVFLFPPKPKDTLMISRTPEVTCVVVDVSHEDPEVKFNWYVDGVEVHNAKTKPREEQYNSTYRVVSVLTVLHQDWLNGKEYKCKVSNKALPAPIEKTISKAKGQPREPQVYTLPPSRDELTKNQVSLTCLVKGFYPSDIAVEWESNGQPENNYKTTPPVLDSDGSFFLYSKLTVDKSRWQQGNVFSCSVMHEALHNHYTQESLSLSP
# light: B1 light
# notes: copies: 2 + 2
# B13: GpH7-B3 variant L234K/GpL16-k0 (antibody, human IgG1)
# heavy: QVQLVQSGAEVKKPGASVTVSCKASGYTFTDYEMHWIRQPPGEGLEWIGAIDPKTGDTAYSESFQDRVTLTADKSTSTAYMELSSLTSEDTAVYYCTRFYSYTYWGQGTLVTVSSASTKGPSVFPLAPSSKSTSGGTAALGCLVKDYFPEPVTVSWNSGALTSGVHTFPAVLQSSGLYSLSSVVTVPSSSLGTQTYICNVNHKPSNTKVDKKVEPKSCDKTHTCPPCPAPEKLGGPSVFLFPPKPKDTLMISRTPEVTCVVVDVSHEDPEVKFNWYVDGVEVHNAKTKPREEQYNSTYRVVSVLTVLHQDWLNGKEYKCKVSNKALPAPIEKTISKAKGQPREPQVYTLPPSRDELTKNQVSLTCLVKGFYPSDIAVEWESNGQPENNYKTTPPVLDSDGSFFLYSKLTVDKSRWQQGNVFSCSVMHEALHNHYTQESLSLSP
# light: B1 light
# notes: copies: 2 + 2
# B14: GpH7-B3 variant L234H/GpL16-k0 (antibody, human IgG1)
# heavy: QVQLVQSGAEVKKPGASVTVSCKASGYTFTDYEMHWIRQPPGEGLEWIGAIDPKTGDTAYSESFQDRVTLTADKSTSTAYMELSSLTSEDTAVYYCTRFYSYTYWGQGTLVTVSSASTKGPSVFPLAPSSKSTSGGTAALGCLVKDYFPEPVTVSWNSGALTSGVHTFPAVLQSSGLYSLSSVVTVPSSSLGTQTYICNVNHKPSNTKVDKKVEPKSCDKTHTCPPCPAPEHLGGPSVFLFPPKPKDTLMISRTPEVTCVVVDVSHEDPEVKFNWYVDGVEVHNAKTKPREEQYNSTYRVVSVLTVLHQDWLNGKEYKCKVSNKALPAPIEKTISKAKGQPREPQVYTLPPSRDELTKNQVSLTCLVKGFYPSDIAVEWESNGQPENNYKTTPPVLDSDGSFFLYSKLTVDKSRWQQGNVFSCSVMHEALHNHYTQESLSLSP
# light: B1 light
# notes: copies: 2 + 2
# B15: GpH7-B3 variant G236R/GpL16-k0 (antibody, human IgG1)
# heavy: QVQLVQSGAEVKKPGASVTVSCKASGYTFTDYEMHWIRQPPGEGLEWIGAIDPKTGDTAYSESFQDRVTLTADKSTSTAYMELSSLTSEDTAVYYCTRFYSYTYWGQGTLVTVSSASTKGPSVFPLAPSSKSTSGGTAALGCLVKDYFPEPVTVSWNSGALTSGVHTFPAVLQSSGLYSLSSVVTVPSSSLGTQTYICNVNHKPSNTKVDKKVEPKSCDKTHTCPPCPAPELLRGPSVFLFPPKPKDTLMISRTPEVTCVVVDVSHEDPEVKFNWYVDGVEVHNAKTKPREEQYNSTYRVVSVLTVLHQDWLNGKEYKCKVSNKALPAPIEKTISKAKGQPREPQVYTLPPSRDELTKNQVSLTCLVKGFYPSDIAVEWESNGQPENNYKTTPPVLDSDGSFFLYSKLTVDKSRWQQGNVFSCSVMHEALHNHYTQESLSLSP
# light: B1 light
# notes: copies: 2 + 2
# B16: GpH7-B3 variant G237D/GpL16-k0 (antibody, human IgG1)
# heavy: not shown
# light: B1 light
# notes: copies: 2 + 2
# B17: GpH7-B3 variant G237R/GpL16-k0 (antibody, human IgG1)
# heavy: not shown
# light: B1 light
# notes: copies: 2 + 2
# B18: GpH7-B3 variant L234F/GpL16-k0 (antibody, human IgG1)
# heavy: not shown
# light: B1 light
# notes: copies: 2 + 2
# B19: GpH7-B3 variant L234A/GpL16-k0 (antibody, human IgG1)
# heavy: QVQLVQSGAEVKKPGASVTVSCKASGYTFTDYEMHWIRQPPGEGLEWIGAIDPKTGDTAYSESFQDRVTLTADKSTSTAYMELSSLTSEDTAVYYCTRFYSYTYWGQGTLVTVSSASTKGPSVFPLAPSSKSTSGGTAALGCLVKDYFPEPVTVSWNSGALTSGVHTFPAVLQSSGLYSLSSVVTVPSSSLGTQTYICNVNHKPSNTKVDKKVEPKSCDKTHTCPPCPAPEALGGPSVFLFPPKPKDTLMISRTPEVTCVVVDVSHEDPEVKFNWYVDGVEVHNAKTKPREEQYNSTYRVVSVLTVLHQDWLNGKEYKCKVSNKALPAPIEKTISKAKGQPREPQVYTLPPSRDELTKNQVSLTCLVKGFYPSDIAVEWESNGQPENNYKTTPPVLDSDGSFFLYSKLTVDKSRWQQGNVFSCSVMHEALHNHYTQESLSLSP
# light: B1 light
# notes: copies: 2 + 2
# B20: GpH7-B3 variant G237H/GpL16-k0 (antibody, human IgG1)
# heavy: not shown
# light: B1 light
# notes: copies: 2 + 2
# B21: GpH7-B3 variant G237S/GpL16-k0 (antibody, human IgG1)
# heavy: not shown
# light: B1 light
# notes: copies: 2 + 2
# B22: GpH7-B3 variant G237V/GpL16-k0 (antibody, human IgG1)
# heavy: not shown
# light: B1 light
# notes: copies: 2 + 2
# B23: GpH7-B3 variant L234E/GpL16-k0 (antibody, human IgG1)
# heavy: not shown
# light: B1 light
# notes: copies: 2 + 2
# Biological target: T4, human FcγRIa (human, UniProt P12314 16-292, limits assumed)
# T4 construct: also called FcgRIa; FcγRI (CD64)
# Test: SPR (Biacore);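 further: antibody variants captured on sensor chip, Fcγ receptor flowed over at 25 °C, bound receptor normalized to amount of captured antibody, expressed relative to reference antibody set as 100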
# Protocol: (§1) Interaction between each modified antibody and Fcγ receptor prepared in the manner described above was analyzed using the BIACORE™ T100 surface plasmon resonance system (GE Healthcare), BIACORE™ T200 surface plasmon resonance system (GE Healthcare), BIACORE™ A100 surface plasmon resonance system or BIACORE™ 4000 surface plasmon resonance system. HBS-EP+ (GE Healthcare) was used for the running buffer, and measurements were carried out at 25° C. The chips used were chips in which antigen peptides, Protein A (Thermo Scientific), Protein A/G (Thermo Scientific) or Protein L (ACTIGEN® protein (Alltech or BioVision) were immobilized on the Series S Sensor Chip CMS (GE Healthcare) or Series S Sensor Chip CM4 (GE Healthcare) by amine coupling, or chips in which preliminarily biotinylated antigen peptides were allowed to interact and then immobilized on the Series S Sensor Chip SA (certified) (GE Healthcare). The target antibodies were captured on these sensor chips, Fcγ receptor diluted with the running buffer was allowed to interact, followed by measurement of the amount of bound antibody. The amounts bound were compared between antibodies. However, since the amount of Fcγ receptor bound depends on the amount of captured antibody, the values used for comparison were first corrected by dividing the amount of Fcγ receptor bound by the captured amount of each antibody. Through reaction with 10 mM glycine-HCl at pH 1.5, the sensor chips were regenerated by washing off antibody captured on the sensor chips and used repeatedly.
# (§2) Binding strength was evaluated according to the following method based on the results of analyzing the interaction with each FcγR. […] That value was then further multiplied by 100, and the resulting value was used as an indicator of relative binding activity to each FcγR.
row,Binder,relative binding activity
1,B1,2 % of GpH7-B3/GpL16-k0
2,B2,31 % of GpH7-B3/GpL16-k0
3,B3,27 % of GpH7-B3/GpL16-k0
4,B4,45 % of GpH7-B3/GpL16-k0
5,B5,76 % of GpH7-B3/GpL16-k0
6,B6,14 % of GpH7-B3/GpL16-k0
7,B7,6 % of GpH7-B3/GpL16-k0
8,B8,14 % of GpH7-B3/GpL16-k0
9,B9,100 % of GpH7-B3/GpL16-k0
10,B10,18 % of GpH7-B3/GpL16-k0
11,B11,15 % of GpH7-B3/GpL16-k0
12,B12,7 % of GpH7-B3/GpL16-k0
13,B13,54 % of GpH7-B3/GpL16-k0
14,B14,65 % of GpH7-B3/GpL16-k0
15,B15,6 % of GpH7-B3/GpL16-k0
16,B16,26 % of GpH7-B3/GpL16-k0
17,B17,3 % of GpH7-B3/GpL16-k0
18,B18,96 % of GpH7-B3/GpL16-k0
19,B19,79 % of GpH7-B3/GpL16-k0
20,B20,12 % of GpH7-B3/GpL16-k0
21,B21,50 % of GpH7-B3/GpL16-k0
22,B22,8 % of GpH7-B3/GpL16-k0
23,B23,82 % of GpH7-B3/GpL16-k0

# Biological target: T1, human FcγRIIa(H)
# Test: SPR (Biacore);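 further: antibody variants captured on sensor chip, Fcγ receptor flowed over at 25 °C, bound receptor normalized to amount of captured antibody, expressed relative to reference antibody set as 100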
# Protocol: as §1, §2
row,Binder,relative binding activity
1,B1,22 % of GpH7-B3/GpL16-k0
2,B2,18 % of GpH7-B3/GpL16-k0
3,B3,2 % of GpH7-B3/GpL16-k0
4,B4,80 % of GpH7-B3/GpL16-k0
5,B5,86 % of GpH7-B3/GpL16-k0
6,B6,1 % of GpH7-B3/GpL16-k0
7,B7,6 % of GpH7-B3/GpL16-k0
8,B8,0 % of GpH7-B3/GpL16-k0
9,B9,57 % of GpH7-B3/GpL16-k0
10,B10,1 % of GpH7-B3/GpL16-k0
11,B11,0 % of GpH7-B3/GpL16-k0
12,B12,1 % of GpH7-B3/GpL16-k0
13,B13,1 % of GpH7-B3/GpL16-k0
14,B14,29 % of GpH7-B3/GpL16-k0
15,B15,3 % of GpH7-B3/GpL16-k0
16,B16,0 % of GpH7-B3/GpL16-k0
17,B17,-1 % of GpH7-B3/GpL16-k0
18,B18,62 % of GpH7-B3/GpL16-k0
19,B19,25 % of GpH7-B3/GpL16-k0
20,B20,1 % of GpH7-B3/GpL16-k0
21,B21,3 % of GpH7-B3/GpL16-k0
22,B22,10 % of GpH7-B3/GpL16-k0
23,B23,21 % of GpH7-B3/GpL16-k0

# Biological target: T2, human FcγRIIa(R)
# Test: SPR (Biacore);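 further: antibody variants captured on sensor chip, Fcγ receptor flowed over at 25 °C, bound receptor normalized to amount of captured antibody, expressed relative to reference antibody set as 100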
# Protocol: as §1, §2
row,Binder,relative binding activity
1,B1,12 % of GpH7-B3/GpL16-k0
2,B2,51 % of GpH7-B3/GpL16-k0
3,B3,13 % of GpH7-B3/GpL16-k0
4,B4,38 % of GpH7-B3/GpL16-k0
5,B5,22 % of GpH7-B3/GpL16-k0
6,B6,56 % of GpH7-B3/GpL16-k0
7,B7,69 % of GpH7-B3/GpL16-k0
8,B8,15 % of GpH7-B3/GpL16-k0
9,B9,65 % of GpH7-B3/GpL16-k0
10,B10,23 % of GpH7-B3/GpL16-k0
11,B11,75 % of GpH7-B3/GpL16-k0
12,B12,58 % of GpH7-B3/GpL16-k0
13,B13,-2 % of GpH7-B3/GpL16-k0
14,B14,21 % of GpH7-B3/GpL16-k0
15,B15,0 % of GpH7-B3/GpL16-k0
16,B16,74 % of GpH7-B3/GpL16-k0
17,B17,0 % of GpH7-B3/GpL16-k0
18,B18,52 % of GpH7-B3/GpL16-k0
19,B19,26 % of GpH7-B3/GpL16-k0
20,B20,14 % of GpH7-B3/GpL16-k0
21,B21,45 % of GpH7-B3/GpL16-k0
22,B22,55 % of GpH7-B3/GpL16-k0
23,B23,48 % of GpH7-B3/GpL16-k0

# Biological target: T3, human FcγRIIb
# Test: SPR (Biacore);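 further: antibody variants captured on sensor chip, Fcγ receptor flowed over at 25 °C, bound receptor normalized to amount of captured antibody, expressed relative to reference antibody set as 100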
# Protocol: as §1, §2
row,Binder,relative binding activity
1,B1,1 % of GpH7-B3/GpL16-k0
2,B2,77 % of GpH7-B3/GpL16-k0
3,B3,7 % of GpH7-B3/GpL16-k0
4,B4,19 % of GpH7-B3/GpL16-k0
5,B5,16 % of GpH7-B3/GpL16-k0
6,B6,36 % of GpH7-B3/GpL16-k0
7,B7,29 % of GpH7-B3/GpL16-k0
8,B8,5 % of GpH7-B3/GpL16-k0
9,B9,53 % of GpH7-B3/GpL16-k0
10,B10,18 % of GpH7-B3/GpL16-k0
11,B11,65 % of GpH7-B3/GpL16-k0
12,B12,51 % of GpH7-B3/GpL16-k0
13,B13,-3 % of GpH7-B3/GpL16-k0
14,B14,24 % of GpH7-B3/GpL16-k0
15,B15,0 % of GpH7-B3/GpL16-k0
16,B16,95 % of GpH7-B3/GpL16-k0
17,B17,-1 % of GpH7-B3/GpL16-k0
18,B18,68 % of GpH7-B3/GpL16-k0
19,B19,24 % of GpH7-B3/GpL16-k0
20,B20,11 % of GpH7-B3/GpL16-k0
21,B21,26 % of GpH7-B3/GpL16-k0
22,B22,12 % of GpH7-B3/GpL16-k0
23,B23,62 % of GpH7-B3/GpL16-k0

# Biological target: T5, human FcγRIIIa(F) (human, UniProt P08637 17-208, limits assumed)
# T5 construct: also called FcgRIIIaF; allotype F158
# Test: SPR (Biacore)
# Protocol: as §1, §2
row,Binder,relative binding activity
1,B1,1 % of GpH7-B3/GpL16-k0
2,B2,51 % of GpH7-B3/GpL16-k0
3,B3,2 % of GpH7-B3/GpL16-k0
4,B4,8 % of GpH7-B3/GpL16-k0
5,B5,39 % of GpH7-B3/GpL16-k0
6,B6,0 % of GpH7-B3/GpL16-k0
7,B7,2 % of GpH7-B3/GpL16-k0
8,B8,0 % of GpH7-B3/GpL16-k0
9,B9,50 % of GpH7-B3/GpL16-k0
10,B10,0 % of GpH7-B3/GpL16-k0
11,B11,0 % of GpH7-B3/GpL16-k0
12,B12,0 % of GpH7-B3/GpL16-k0
13,B13,1 % of GpH7-B3/GpL16-k0
14,B14,32 % of GpH7-B3/GpL16-k0
15,B15,-1 % of GpH7-B3/GpL16-k0
16,B16,0 % of GpH7-B3/GpL16-k0
17,B17,0 % of GpH7-B3/GpL16-k0
18,B18,49 % of GpH7-B3/GpL16-k0
19,B19,22 % of GpH7-B3/GpL16-k0
20,B20,0 % of GpH7-B3/GpL16-k0
21,B21,1 % of GpH7-B3/GpL16-k0
22,B22,2 % of GpH7-B3/GpL16-k0
23,B23,63 % of GpH7-B3/GpL16-k0
